# Test results reported in article PMC5384801 (mAbs, 2016).
# B1: 8C chimeric mAb (bovine V regions, human IgG1/lambda constant regions) (antibody, V domains shown)
# VH: QVQLRESGPSLVKPSQTLSLTCTVSGFSLSRYDVNWVRQAPGKALEWVGVISGDGITGYNPALKSRLSITKDNSKSQLSLSVSSVTPEDTATYYCESWVCVGGRDDVCHSDWGQGLLVTVSS
# VL: QAVLTQPTSVSVALGQTAKITCSGDLVDEQYTQWYQQKPGQGPVMVIYKDSERPSGISDRFSGSNSGKTATLTISGAQTEDEADYYCHSADSSHAVFGSGTTLTV
# Target: trimeric HIV-1 YU-2 gp140 Env (HIV-1 YU-2 (clade B), UniProt P35961, strain)
# Assay: ELISA
binder,measurement,value
B1,binding result,no binding
